No end group written: not given here.
T1: His.Tag AcNPV DBP (Autographa californica nuclear polyhedrosis virus, UniProt P41430)
T1 construct: made in house; host or cells: E. coli BL21 (DE3)
T1 sequence (P41430 whole entry, looked up): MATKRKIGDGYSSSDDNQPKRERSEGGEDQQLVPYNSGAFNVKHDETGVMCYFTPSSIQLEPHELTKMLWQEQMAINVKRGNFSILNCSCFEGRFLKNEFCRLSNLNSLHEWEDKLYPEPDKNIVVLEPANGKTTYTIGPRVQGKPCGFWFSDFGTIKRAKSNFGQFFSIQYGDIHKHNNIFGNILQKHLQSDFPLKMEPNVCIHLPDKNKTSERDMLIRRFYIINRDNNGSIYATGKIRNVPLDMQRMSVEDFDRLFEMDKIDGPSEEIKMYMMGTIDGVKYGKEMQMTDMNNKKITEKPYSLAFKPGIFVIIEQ


Columns and labels:
[1] = molecular target: T1, His.Tag AcNPV DBP; assay: ELISA for His.Tag AcNPV DBP screening using the FliTrx protein solution; format: binding, Autographa californica nucleopolyhedrovirus (AcNPV); settings: wells coated with FliTrx protein solution of positive clones; 6 μg His.Tag AcNPV DBP added; mean of duplicate; mean O.D. of negative controls 0.14
Method: (§1) ELISA Protocols for His.Tag AcNPV DBP Screening
(§2) ELISA procedure was used for analysis of His.Tag AcNPV DBP as a target. The polystyrene microtitration plates (PolySorp™ Surface, Immuno™ Plate, Nunc) were used as the solid phase for the assay. All washes were performed four times with phosphate-buffered saline (PBS) containing 0.05% (V/V) Tween® 20 (PBS-T). The substrate solution for alkaline phosphatase (p-nitrophenyl phosphate, pNPP, 1 mg/ml, in 0.2 M Tris-HCl buffer, pH 7) was from Sigma, St. Louis, Mo. The reaction was stopped by the addition of 3 M NaOH (50 μl per well). The optical density at 405 nm (O.D.λ=405 nm) was measured in a microplate colorimeter (Molecular Devices, Thermo max Microplate Reader).
1. Using the FliTrx™ Protein Solution
Wells of the microtitration plates were coated with the FliTrx™ protein solutions obtained from induced culture cell of positive clones that contain the peptides recognized by His.Tag AcNPV DBP (50 μl per well). To account for plate binders, empty plates were used as negative controls. After incubation overnight at +4° C., the plates were washed, and the uncoated attachment sites on the plates were saturated by incubation for 1 hour at 37° C. with a solution of 2% nonfat dry milk in PBS-T: PBS-T-M (200 μl per well). The plates were then washed, and an aliquot of 100 μl (6 μg) of the purified His.Tag AcNPV DBP was added to both the target plate and the control plate. Plates were incubated for. 1 hour at 37° C. The plates were then washed, and 100 μl of a 1:1,000 dilution of mouse monoclonal Ig G1 antibody to penta-His™ (QIAGEN, Valencia, Calif.) in PBS-T-M were added. After being incubated again for 1 hour at 37° C., the plates were washed, and 100 μl of a 1:1,000 dilution of goat anti-mouse IgG conjugated to alkaline phosphatase (Bio-Rad Laboratories, Hercules, Calif.) were added. After being incubated again for 1 hour at 37° C., the plates were washed, and substrate solution (200 [l per well) was added. After incubation for 1 hour at 37° C., the reaction was stopped.

[2] = molecular target: T1, His.Tag AcNPV DBP; assay: ELISA for His.Tag AcNPV DBP screening using the biotinylated synthesized peptide ligand; format: binding, Autographa californica nucleopolyhedrovirus (AcNPV); settings: wells coated with 2 μg His.Tag AcNPV DBP; 25 μg biotinylated peptide added; negative control (empty) plate gave 0.30
Method: as §1, §2
2. Using the Biotinylated Synthesized Peptide Ligand
Wells of the microtitration plates were coated with 50 μl (2 μg) of purified His.Tag AcNPV DBP. To account for plate binders, empty plates were used as negative controls. After incubation overnight at +4° C., the plates were washed, and the uncoated attachment sites on the plates were saturated by incubation for 1 hour at 37° C. with PBS-T-M (200 μl per well). The plates were then washed, and an aliquot of 100 μl (25 μg) of the biotinylated synthesized peptide ligand No. 4 (SEQ ID NO. 6) (Invitrogen, Carlsbad, Calif.) was added to both the target plate and the control plate. Plates were incubated for 1 hour at 37° C. […]

[3] = molecular target: recombinant His.Tag AcNPV DBP (Autographa californica nucleopolyhedrovirus DNA-binding protein) (Autographa californica nucleopolyhedrovirus (AcNPV)); assay: ELISA: FliTrx protein solution coated, 6 ug His.Tag AcNPV DBP added, detected with anti-penta-His and goat anti-mouse IgG-AP; mean of duplicate; negative controls (empty plates) 0.14
[4] = molecular target: recombinant His.Tag AcNPV DBP (Autographa californica nucleopolyhedrovirus DNA-binding protein) (Autographa californica nucleopolyhedrovirus (AcNPV)); assay: ELISA: 2 ug His.Tag AcNPV DBP coated, 25 ug biotinylated peptide added, detected with anti-biotin BN-34-AP; empty negative control plate 0.30

Molecule	ELISA (O.D. λ = 405 nm), affinity for His.Tag AcNPV DBP [1]	ELISA (O.D. λ = 405 nm) (O.D. λ = 405 nm) [3]	further results
ADYGKGLRRAMG (baculovirus) [Peptide ligand No. 3, FliTrx selected dodecapeptide ligand recognized by His.Tag AcNPV DBP]	1.11		
AGRKGERGSVLQ (baculovirus) [Peptide ligand No. 1, FliTrx selected dodecapeptide ligand recognized by His.Tag AcNPV DBP]	1.21		
AMLRAACVVRSM (baculovirus) [Peptide ligand No. 2, FliTrx selected dodecapeptide ligand recognized by His.Tag AcNPV DBP]	0.56		
GGGGRRSGGACP (baculovirus) [Peptide ligand No. 4, FliTrx selected dodecapeptide ligand recognized by His.Tag AcNPV DBP]	1.13		
PAQAQTRRRRPR (baculovirus) [Peptide ligand No. 5, FliTrx selected dodecapeptide ligand recognized by His.Tag AcNPV DBP]	1.35		
biotinylated synthesized peptide ligand No. 4: biotinylated synthesized peptide ligand No. 4 (SEQ ID NO. 6), GGGGRRSGGACP (also: biotinylated)			mean O.D. value, target plate [2]: about 4.0
AGRKGERGSVLQ (peptide, part only; not given: FliTrx scaffold, part only, also: inserted in thioredoxin active-site loop of FliTrx fusion protein) [FliTrx selected peptide ligand No. 1 (…), as FliTrx protein solution]		1.21	
ADYGKGLRRAMG (peptide, part only; not given: FliTrx scaffold, part only, also: inserted in thioredoxin active-site loop of FliTrx fusion protein) [FliTrx selected peptide ligand No. 3 (…), as FliTrx protein solution]		1.11	
PAQAQTRRRRPR (peptide, part only; not given: FliTrx scaffold, part only, also: inserted in thioredoxin active-site loop of FliTrx fusion protein) [FliTrx selected peptide ligand No. 5 (…), as FliTrx protein solution]		1.35	
GGGGRRSGGACP (peptide, part only; not given: FliTrx scaffold, part only, also: inserted in thioredoxin active-site loop of FliTrx fusion protein) [FliTrx selected peptide ligand No. 4 (…), as FliTrx protein solution]		1.13	
GGGGRRSGGACP (also: biotinylated, position not given here) [biotinylated synthesized peptide ligand No. 4 (SEQ ID NO. 6)]			mean O.D. (405 nm) [4]: 4 O.D.
AMLRAACVVRSM (peptide, part only; not given: FliTrx scaffold, part only, also: inserted in thioredoxin active-site loop of FliTrx fusion protein) [FliTrx selected peptide ligand No. 2 (…), as FliTrx protein solution]		0.56	
